Results as given in patent publication US20060094649A1.

Key:
HLA-B*4001 (human) = test: competition with labeled probe peptide, purified HLA class I
HLA-B*4403 (human) = test: as above

SEQ ID NO 717, 7-mer of MAGE2 at position 234 (printed as WEELSML) (peptide)
IC50 (HLA-B*4001 (human)): 10.4 µM
IC50 (HLA-B*4403 (human)): 2.01 µM
